# Reference: PMC6597583
# Tests used:
# [1] = target: BnCYP19-1 (Brassica napus)
# [2] = target: BnCYP18-4 (Brassica napus)
# [3] = target: AtCYP19-3 (Arabidopsis thaliana)
# [4] = target: BnCYP18-5 (Brassica napus)
substance,measurement,setting,value
cyclosporin A (peptide),"IC50 of CsA for inhibition of PPIase activity (protease-coupled assay, substrate Suc-AAPF-pNA, 5 nM protein, 0 to 1000 nM CsA, 4 °C)",[1],16.6 nM
same,"IC50 of CsA for inhibition of PPIase activity (protease-coupled assay, substrate Suc-AAPF-pNA, 5 nM protein, 0 to 1000 nM CsA, 4 °C)",[2],14.2 nM
same,"IC50 of CsA for inhibition of PPIase activity (protease-coupled assay, substrate Suc-AAPF-pNA, 5 nM protein, 0 to 1000 nM CsA, 4 °C)",[3],20.4 nM
same,"IC50 of CsA for inhibition of PPIase activity (protease-coupled assay, substrate Suc-AAPF-pNA, 5 nM protein, 0 to 1000 nM CsA, 4 °C)",[4],22.4 nM
